Laboratory results from patent US20130259878A1 (OXFORD BIOTHERAPEUTICS, published 2013).

Columns and labels:
[1] = target: T1, CDH17 human full length Flag tagged antigen, transfected into HEK293 cells (human, UniProt Q12864 23-832); experiment: flow cytometry on HEK293 cells transiently transfected with Flag tagged human CDH17; panel 'CDH17 Human Flag Tag analyzed with CDH17_A4_4K'
T1 construct: The Flag tag may sit at either end; also called Flag tagged Human CDH17; human CDH17; not shown: Flag tag
T1 sequence: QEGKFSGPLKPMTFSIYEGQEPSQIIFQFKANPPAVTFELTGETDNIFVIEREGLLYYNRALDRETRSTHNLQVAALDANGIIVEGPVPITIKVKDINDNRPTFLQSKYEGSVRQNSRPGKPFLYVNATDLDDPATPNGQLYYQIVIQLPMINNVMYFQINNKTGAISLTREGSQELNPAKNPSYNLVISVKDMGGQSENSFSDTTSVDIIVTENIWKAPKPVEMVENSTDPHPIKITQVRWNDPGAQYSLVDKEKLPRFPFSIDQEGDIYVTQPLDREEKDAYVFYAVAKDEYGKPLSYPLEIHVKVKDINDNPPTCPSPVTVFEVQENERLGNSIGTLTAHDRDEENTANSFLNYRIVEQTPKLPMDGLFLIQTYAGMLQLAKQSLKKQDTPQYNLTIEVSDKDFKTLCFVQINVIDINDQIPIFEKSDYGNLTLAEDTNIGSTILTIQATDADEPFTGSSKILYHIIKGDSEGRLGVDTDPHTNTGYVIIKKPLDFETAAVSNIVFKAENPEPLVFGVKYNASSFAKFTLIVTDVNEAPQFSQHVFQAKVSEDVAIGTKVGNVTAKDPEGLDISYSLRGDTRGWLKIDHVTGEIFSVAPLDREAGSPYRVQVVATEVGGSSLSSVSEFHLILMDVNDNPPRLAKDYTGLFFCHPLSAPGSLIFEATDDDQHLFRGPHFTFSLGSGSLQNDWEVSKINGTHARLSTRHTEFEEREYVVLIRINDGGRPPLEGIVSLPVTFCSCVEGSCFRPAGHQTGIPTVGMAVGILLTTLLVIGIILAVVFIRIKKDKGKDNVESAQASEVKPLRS
Description: (§1) The humanized monoclonal antibodies, CDH17_A4_{—}4K and CDH17_A4_{—}4R were incubated with cells on ice for 1 hour and then washed twice with cold FACS buffer and re-suspended in 100 ul FACS buffer per well. A secondary antibody was added at 1 ug/ml along with goat anti-mouse H+L PE (Southern Biotech) for Anti-flag and mouse isotype control and goat anti-human H+L PE (Southern Biotech) for human isotype control. The plate was then incubated for 1 hour after which was washed three times with FACS buffer and re-suspended 150 ul FACS buffer per well. 50 ul of 4% paraformaldehyde was then added to fix the cells before storing the plate overnight at 4 degrees C. The sample were then run on Guava EasyCyte Flow Cytometer HT plus and the data analyzed using the Guava Cytosoft software suite.

[2] = target: T1, CDH17 human full length Flag tagged …; experiment: flow cytometry on HEK293 cells transiently transfected with Flag tagged human CDH17; panel 'CDH17 Human Flag Tag analyzed with CDH17_A4_4R'
Description: as §1

[3] = target: T2, human Cadherin-17 (CDH17), cell-surface, endogenous on human cancer cells (human, UniProt Q12864 23-832); experiment: flow cytometry on LoVo cells, antibody titration
T2 construct: Endogenous CDH17 on LoVo, LS174T and SNU-1 cells and in human tumor tissue sections; also called liver-intestine cadherin; LI-cadherin
T2 sequence: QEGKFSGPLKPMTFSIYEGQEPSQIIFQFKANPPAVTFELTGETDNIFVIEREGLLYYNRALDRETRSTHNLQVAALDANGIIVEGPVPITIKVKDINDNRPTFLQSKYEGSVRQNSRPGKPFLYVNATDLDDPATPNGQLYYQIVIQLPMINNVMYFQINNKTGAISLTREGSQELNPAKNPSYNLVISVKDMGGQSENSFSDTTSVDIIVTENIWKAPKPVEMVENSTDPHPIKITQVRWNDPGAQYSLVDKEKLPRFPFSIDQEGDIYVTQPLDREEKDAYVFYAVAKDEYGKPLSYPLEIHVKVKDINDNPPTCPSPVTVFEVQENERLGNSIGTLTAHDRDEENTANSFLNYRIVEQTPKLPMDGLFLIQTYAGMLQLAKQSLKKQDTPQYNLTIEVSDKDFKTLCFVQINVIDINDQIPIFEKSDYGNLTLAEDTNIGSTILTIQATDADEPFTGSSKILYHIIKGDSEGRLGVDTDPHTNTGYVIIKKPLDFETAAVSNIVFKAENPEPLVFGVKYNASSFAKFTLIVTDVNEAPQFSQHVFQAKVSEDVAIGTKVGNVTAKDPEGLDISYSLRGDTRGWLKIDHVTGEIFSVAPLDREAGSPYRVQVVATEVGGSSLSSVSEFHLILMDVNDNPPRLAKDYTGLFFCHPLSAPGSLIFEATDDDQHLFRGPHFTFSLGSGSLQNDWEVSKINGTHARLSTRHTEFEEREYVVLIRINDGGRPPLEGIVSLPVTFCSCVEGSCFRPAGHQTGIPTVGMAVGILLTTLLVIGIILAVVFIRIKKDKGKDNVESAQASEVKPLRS

B1: humanized CDH17_A4-4K monoclonal antibody (antibody, V domains shown)
VH: QVQLVQSGAEVKKPGASVKVSCKASGYTLTDHTIHWMRQAPGQRLEWIGYIYPRDGITGYNEKFKGKATLTADTSASTAYMELSSLRSEDTAVYYCARWGYSYRNYAYYYDYWGQGTLVTVSS
VL: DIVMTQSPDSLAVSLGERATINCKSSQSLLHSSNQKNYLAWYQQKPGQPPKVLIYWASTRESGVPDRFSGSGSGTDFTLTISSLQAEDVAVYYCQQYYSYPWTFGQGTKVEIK
notes: It was detected with an anti-human IgG secondary in the HumZAP assay
EC50 [1]: 0.14 nM

B2: humanized CDH17_A4-4R monoclonal antibody (antibody, V domains shown)
VH: QVQLVQSGAEVKKPGASVKVSCKASGYTLTDHTIHWMRQAPGQRLEWIGYIYPRDGITGYNERFRGKATLTADTSASTAYMELSSLRSEDTAVYYCARWGYSYRNYAYYYDYWGQGTLVTVSS
VL: DIVMTQSPDSLAVSLGERATINCRSSQSLLHSSNQRNYLAWYQQKPGQPPKVLIYWASTRESGVPDRFSGSGSGTDFTLTISSLQAEDVAVYYCQQYYSYPWTFGQGTKVEIK
notes: as for B1
EC50 [2]: 0.13 nM

B3: CDH17_A4 monoclonal antibody (Fab, V domains shown)
VH: EVQLQQSVAELVKPGASVKMSCKVSGYTLTDHTIHWMKQRPEQGLEWIGYIYPRDGITGYNEKFKGKATLTADTSSSTAYMQLNSLTSEDSAVYFCARWGYSYRNYAYYYDYWGQGTTLTVSS
VL: DIVMSQSPSSLAVSVGEKVTMSCKSSQSLLHSSNQKNYLAWYQQKPGQSPKVLIYWASTRESGVPDRFTGSGSGTDFTLTITSVKSEDLAVYYCQQYYSYPWTFGGGTRLEIK
notes: also called CHD17_A4
binding result [3]: binds
